Laboratory results reported in the supplement of paper PMC12667976.
± gives the standard error.

B1: library; numbered along this chain (parent)
chain: MATDAALRRLLRLHRTEIAVAVDSAFPLLHALADHDVVPEDKFQETLHLKEKEGCPQAFHALLSWLLTQDSTAILDFWRVLFKDYNLERYGRLQPILDSFPKDVDLSQPRKGRKPPAVPKALVPPPRLPTKRKASEEARAAAPAALTPRGTASPGSQLKAKPPKKPESSAEQQRLPLGNGIQTMSASVQRAVAMSSGDVPGARGAVEGILIQQVFESGGSKKCIQVGGEFYTPSKFEDSGSGKNKARSSSGPKPLVRAKGAQGAAPGGGEARLGQQGSVPAPLALPSDPQLHQKNEDECAVCRDGGELICCDGCPRAFHLACLSPPLREIPSGTWRCSSCLQATVQEVQPRAEEPRPQEPPVETPLPPGLRSAGEEVRGPPGEPLAGMDTTLVYKHLPAPPSAAPLPGLDSSALHPLLCVGPEGQQNLAPGARCGVCGDGTDVLRCTHCAAAFHWRCHFPAGTSRPGTGLRCRSCSGDVTPAPVEGVLAPSPARLAPGPAKDDTASHEPALHRDDLESLLSEHTFDGILQWAIQSMARPAAPFPS

Variants of: B1
Assay: AIRE transcriptional activation functional score (insulin promoter-GFP; nonsense median 0, synonymous median 1) (normalised score); higher = higher AIRE activity (more reporter activation)
Settings: with insulin promoter-GFP reporter in HEK293
How it was run: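 Codon-optimized AIRE NNN-codon libraries (three regions) were integrated by Bxb1 recombinase into Flp-In T-REx HEK293 landing-pad cells carrying an insulin core promoter-GFP reporter. Integrants (mCherry+, BFP−) sorted at day 7 were expanded 7 days; top 10% GFP and unselected integrant populations were tile-sequenced. Functional score is select versus non-select variant enrichment, wild-type subtracted. Variants needed 10 counts per million in non-select; scores were rescaled to nonsense median 0 and synonymous median 1, then averaged over biological replicates.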

In order of falling “AIRE transcriptional activation functional score” value:
1. M536F  1.95 ± 0.17
2. Q534N  1.8 ± 0.093
3. Q534T  1.76 ± 0.11
4. S535G  1.74 ± 0.088
5. Q534A  1.7 ± 0.083
6. R538I  1.65 ± 0.075
7. R538W  1.54 ± 0.038
8. R538L  1.52 ± 0.052
9. Q530N  1.52 ± 0.11
10. P539G  1.47 ± 0.27
11. A537T  1.41 ± 0.19
12. L529W  1.39 ± 0.097
13. A532T  1.21 ± 0.1
14. Q530H  1.21 ± 0.032
15. M536I  1.19 ± 0.15
16. R538K  1.18 ± 0.1
17. L529I  1.17 ± 0.3
18. M536T  1.15 ± 0.46
19. I533M  1.13 ± 0.36
20. A537S  1.1 ± 0.22
21. S535A  1.1 ± 0.35
22. M536C  1.08 ± 0.067
23. Q534G  1.08 ± 0.3
24. Q534C  1.08 ± 0.42
25. R538M  1.05 ± 0.096
26. Q530T  1.05 ± 0.1
27. M536L  1.04 ± 0.11
28. A532L  1.01 ± 0.31
29. M536H  1 ± 0.085
30. A537E  0.915 ± 0.53
31. L529V  0.905 ± 0.14
32. A537V  0.891 ± 0.073
33. Q534K  0.887 ± 0.14
34. A532V  0.836 ± 0.14
35. Q530A  0.824 ± 0.38
36. A537Q  0.813 ± 0.16
37. Q534H  0.807 ± 0.086
38. A537G  0.792 ± 0.15
39. A537H  0.783 ± 0.12
40. S535T  0.745 ± 0.39
41. R538S  0.733 ± 0.23
42. M536D  0.726 ± 0.089
43. R538T  0.72 ± 0.23
44. S535C  0.706 ± 0.051
45. S535H  0.704 ± 0.11
46. W531L  0.702 ± 0.41
47. A537C  0.622 ± 0.053
48. Q534M  0.598 ± 0.038
49. L529Y  0.598 ± 0.66
50. L529C  0.595 ± 0.044
51. M536E  0.588 ± 0.14
52. I533D  0.569 ± 0.14
53. Q530S  0.546 ± 0.23
54. A537P  0.545 ± 0.38
55. R538G  0.544 ± 0.22
56. I533T  0.516 ± 0.061
57. M536V  0.514 ± 0.24
58. M536W  0.508 ± 0.068
59. M536N  0.506 ± 0.036
60. S535P  0.472 ± 0.33
61. A537M  0.458 ± 0.034
62. A532I  0.447 ± 0.059
63. Q530Y  0.438 ± 0.036
64. W531M  0.434 ± 0.045
65. A532Y  0.432 ± 0.23
66. I533V  0.411 ± 0.5
67. I533S  0.404 ± 0.12
68. S535F  0.394 ± 0.19
69. Q530K  0.392 ± 0.086
70. Q530P  0.385 ± 0.2
71. P539H  0.373 ± 0.15
72. Q534S  0.372 ± 0.079
73. P539A  0.371 ± 0.1
74. W531D  0.357 ± 0.3
75. A537K  0.346 ± 0.28
76. L529F  0.323 ± 0.16
77. Q534L  0.314 ± 0.14
78. S535W  0.301 ± 0.028
79. Q530E  0.29 ± 0.21
80. W531I  0.285 ± 0.14
81. I533L  0.274 ± 0.55
82. M536S  0.272 ± 0.48
83. I533R  0.266 ± 0.065
84. I533G  0.261 ± 0.029
85. L529T  0.261 ± 0.35
86. I533C  0.256 ± 0.076
87. Q530D  0.251 ± 0.23
88. P539C  0.233 ± 0.21
89. A537I  0.231 ± 0.063
90. W531Q  0.225 ± 0.11
91. P539F  0.224 ± 0.097
92. W531S  0.218 ± 0.14
93. I533H  0.217 ± 0.096
94. M536P  0.215 ± 0.085
95. A532R  0.215 ± 0.15
96. S535I  0.212 ± 0.36
97. Q534F  0.205 ± 0.19
98. I533Y  0.199 ± 0.054
99. A532D  0.194 ± 0.2
100. I533W  0.193 ± 0.14
101. Q534Y  0.193 ± 0.035
102. R538A  0.19 ± 0.045
103. M536G  0.186 ± 0.32
104. A532Q  0.186 ± 0.072
105. Q530I  0.183 ± 0.36
106. W531K  0.178 ± 0.088
107. Q534R  0.171 ± 0.18
108. S535N  0.164 ± 0.079
109. S535L  0.146 ± 0.33
110. I533Q  0.144 ± 0.029
111. A532S  0.141 ± 0.15
112. W531C  0.138 ± 0.2
113. Q534V  0.135 ± 0.36
114. L529R  0.121 ± 0.14
115. S535R  0.12 ± 0.24
116. W531F  0.12 ± 0.12
117. Q534P  0.0913 ± 0.28
118. P539I  0.0871 ± 0.21
119. A532N  0.0785 ± 0.19
120. A532G  0.0621 ± 0.18
121. M536A  0.0376 ± 0.42
122. A537L  0.0269 ± 0.21
123. W531G  0.0105 ± 0.07
124. S535V  0.00974 ± 0.14
125. A532P  0.00951 ± 0.22
126. P539D  0.00758 ± 0.27
127. P539K  0.00204 ± 0.28
128. P539L  -0.0017 ± 0.31
129. S535Q  -0.0138 ± 0.2
130. Q530L  -0.018 ± 0.14
131. A532K  -0.0221 ± 0.22
132. M536K  -0.0329 ± 0.17
133. A537R  -0.0391 ± 0.22
134. Q534I  -0.04 ± 0.16
135. Q530C  -0.0453 ± 0.094
136. M536R  -0.0464 ± 0.14
137. Q530F  -0.0468 ± 0.091
138. W531V  -0.0485 ± 0.2
139. Q530R  -0.0677 ± 0.32
140. Q530W  -0.0706 ± 0.066
141. M536Y  -0.0719 ± 0.35
142. L529A  -0.089 ± 0.14
143. W531A  -0.104 ± 0.096
144. I533N  -0.116 ± 0.23
145. Q534D  -0.117 ± 0.21
146. W531R  -0.126 ± 0.31
147. W531P  -0.179 ± 0.18
148. R538N  -0.187 ± 0.14
149. A532F  -0.19 ± 0.1
150. Q530M  -0.198 ± 0.14
151. L529G  -0.203 ± 0.081
152. L529S  -0.21 ± 0.34
153. S535K  -0.212 ± 0.16
154. A532C  -0.268 ± 0.071
155. Q530V  -0.295 ± 0.23
156. W531N  -0.329 ± 0.13
157. L529P  -0.359 ± 0.12
158. L529E  -0.369 ± 0.033
159. I533E  -0.386 ± 0.17
160. W531E  -0.39 ± 0.13
161. S535M  -0.462 ± 0.48
162. L529H  -0.499 ± 0.13
163. L529M  -0.503 ± 0.086
164. L529N  -0.625 ± 0.46
165. L529D  -0.829 ± 0.32
166. L529Q  -0.832 ± 0.12
167. S535Y  -1.02 ± 0.4
